In the supplement of paper PMC10567573 one finds protein stability index data, which are given here for 94 variants.

Sequences and labels used below:
B1: PLD5 (parent)
chain: WIVDKQHVYIGSAGLDWQSLGQMK
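Note: lentivirally expressed fusions sorted by FACS into six bins by GFP to DsRed ratio, PSI derived from sequencing read proportions per bin multiplied by bin number.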

Variants of B1 are the subject of this series. Description: protein stability index of a GFP-peptide fusion (GPS, HEK-293T) (PSI 1-6); higher = more stable. The note with it: c terminus: a fixed tail appended.
WIVDKQHVYIGSPGLDWQSLGQMK [A13P]: the protein stability index turned out to be 1.55.
On to WIVDKQHVYIGSGGLDWQSLGQMK [A13G], for which the protein stability index is 2.05.
For WIVDKQHVYIGSCGLDWQSLGQMK [A13C], the protein stability index stood at 2.08.
For WIVDKQHVYIGSQGLDWQSLGQMK [A13Q], the protein stability index stood at 1.95.
Take WIVDKQHVYIGSEGLDWQSLGQMK [A13E]: the protein stability index was determined as 1.72.
Take WIVDKQHVYIGSKGLDWQSLGQMK [A13K]: the protein stability index worked out at 1.96.
The value for WIVDKQHVYIGSHGLDWQSLGQMK [A13H] was 1.45; that for WIVDKQHVYIGSSGLDWQSLGQMK [A13S] was 2.14; that for WIVDKQHVYIGSWGLDWQSLGQMK [A13W] was 1.56.
For the variant WIVDKQHVYIGSIGLDWQSLGQMK [A13I], the protein stability index was 3.29.
As for WIVDKQHVYIGSRGLDWQSLGQMK [A13R], the protein stability index is 3.3.
For WIVDKQHVYIGSAGLDWQSIGQMK [L20I], the protein stability index came to 1.97.
As to WIVDKQHVYIGSAGLDWQSAGQMK [L20A], the protein stability index was 1.65.
The value for WIVDKQHVYIGSAGLDWQSSGQMK [L20S] was 1.85; that for WIVDKQHVYIGSAGLDWQSKGQMK [L20K] was 2.17; that for WIVDKQHVYIGSAGLDWQSMGQMK [L20M] was 2.19.
Next, WIVDKQHVYIGSAGLDWQSTGQMK [L20T]: 2.01; WIVDKQHVYIGSAGLDWQSRGQMK [L20R]: 2.13.
As to WIVDKQHVYIGSAGLDWQSFGQMK [L20F], the protein stability index came out at 1.61.
The value for WIVDKQHVYIGSAGLDWQSHGQMK [L20H] was 1.76.
For WIVDKQHVYIGSAGLDWQSVGQMK [L20V], the protein stability index turned out to be 2.
Regarding WIVDKQHVYIGSAGLDWQSPGQMK [L20P], the protein stability index came out at 2.1.
Take WIVDKQHVYIGSAGLDWQSQGQMK [L20Q]: the protein stability index came out at 1.54.
Next, WIVDKQHVYIGSAGLDWQSYGQMK [L20Y]: 1.97.
For the variant WIVDKQHVYIGSAGLDWQSDGQMK [L20D], the protein stability index is 1.96.
As for WIVDKQHVYIGSAGLDWQSEGQMK [L20E], the protein stability index came out at 2.3.
Take WIVDKQHVYIGSAGLDWQSGGQMK [L20G]: the protein stability index was found to be 2.43.
For WIVDKQHVYIGSAGLDWQSCGQMK [L20C], the protein stability index worked out at 2.05.
Next, WIVDKQHVYIGSAGLDWQSNGQMK [L20N]: 2; WIVDKQHVYIGSAGLDWQSWGQMK [L20W]: 1.85; WIVDKQHVYIGSAGLDWQSLMQMK [G21M]: 1.89.
In the case of WIVDKQHVYIGSAGLDWQSLEQMK [G21E], the protein stability index was found to be 1.25.
With WIVDKQHVYIGSAGLDWQSLDQMK [G21D], the protein stability index stood at 2.
Next, WIVDKQHVYIGSAGLDWQSLKQMK [G21K]: 1.54.
Regarding WIVDKQHVYIGSAGLDWQSLPQMK [G21P], the protein stability index came out at 1.67.
For WIVDKQHVYIGSAGLDWQSLNQMK [G21N], the protein stability index was found to be 2.41.
Regarding WIVDKQHVYIGSAGLDWQSLCQMK [G21C], the protein stability index came to 1.91.
Take WIVDKQHVYIGSAGLDWQSLAQMK [G21A]: the protein stability index stood at 2.17.
In the case of WIVDKQHVYIGSAGLDWQSLQQMK [G21Q], the protein stability index is 1.75.
As to WIVDKQHVYIGSAGLDWQSLHQMK [G21H], the protein stability index amounted to 2.52.
With WIVDKQHVYIGSAGLDWQSLLQMK [G21L], the protein stability index came to 2.88.
As for WIVDKQHVYIGLAGLDWQSLGQMK [S12L], the protein stability index turned out to be 2.45.
For the variant WIVDKQHVYIGGAGLDWQSLGQMK [S12G], the protein stability index amounted to 1.72.
WIVDKQHVYIGKAGLDWQSLGQMK [S12K]: the protein stability index was determined as 2.07.
With WIVDKQHVYIGRAGLDWQSLGQMK [S12R], the protein stability index was 1.6.
For WIVDKQHVYIGQAGLDWQSLGQMK [S12Q], the protein stability index stood at 1.6.
For WIVDKQHVYIGHAGLDWQSLGQMK [S12H], the protein stability index was 1.62.
WIVDKQHVYIGTAGLDWQSLGQMK [S12T]: the protein stability index came out at 1.18.
For the variant WIVDKQHVYIGVAGLDWQSLGQMK [S12V], the protein stability index amounted to 2.35.
For the variant WIVDKQHVYIGFAGLDWQSLGQMK [S12F], the protein stability index came to 3.2.
As for WIVDKQHVYIGEAGLDWQSLGQMK [S12E], the protein stability index came to 1.52.
Consider WIVDKQHVYIGIAGLDWQSLGQMK [S12I], for which the protein stability index came to 3.48.
The value for WIVDKQHVYIGWAGLDWQSLGQMK [S12W] was 1.92; that for WIVDKQHVYIGMAGLDWQSLGQMK [S12M] was 1.31; that for WIVDKQHVYIGNAGLDWQSLGQMK [S12N] was 1.92.
For WIVDKQHVYIGAAGLDWQSLGQMK [S12A], the protein stability index was found to be 1.65.
Take WIVDKQHVYIGYAGLDWQSLGQMK [S12Y]: the protein stability index stood at 1.73.
Turning to WIVDKQHVYIGDAGLDWQSLGQMK [S12D], the protein stability index amounted to 1.57.
Regarding WIVDKQHVYIGPAGLDWQSLGQMK [S12P], the protein stability index was 1.89.
In the case of WIVDKQHVYIGSAGLDWQLLGQMK [S19L], the protein stability index was 3.25.
As to WIVDKQHVYIGSAGLDWQNLGQMK [S19N], the protein stability index was determined as 1.45.
For WIVDKQHVYIGSAGLDWQWLGQMK [S19W], the protein stability index was found to be 2.5.
Regarding WIVDKQHVYIGSAGLDWQPLGQMK [S19P], the protein stability index was 1.29.
Take WIVDKQHVYIGSAGLDWQFLGQMK [S19F]: the protein stability index came to 2.34.
As for WIVDKQHVYIGSAGLDWQALGQMK [S19A], the protein stability index came out at 2.23.
WIVDKQHVYIGSAGLDWQQLGQMK [S19Q]: the protein stability index was 1.9.
The value for WIVDKQHVYIGSAGLDWQELGQMK [S19E] was 2.06; that for WIVDKQHVYIGSAGLDWQRLGQMK [S19R] was 1.83; that for WIVDKQHVYIGSAGLDWQDLGQMK [S19D] was 1.9.
As for WIVDKQHVYIGSAGLDWQMLGQMK [S19M], the protein stability index is 1.7.
Next, WIVDKQHVYIGSAGLDWQHLGQMK [S19H]: 1.81.
In the case of WIVDKQHVYIGSAGLDWQYLGQMK [S19Y], the protein stability index turned out to be 1.91.
For WIVDKQHVYIGSAGLDWQCLGQMK [S19C], the protein stability index is 2.62.
With WIVDKQHVYIGSAGLDWQVLGQMK [S19V], the protein stability index came out at 1.69.
As to WIVDKQHVYIGSAGLDWQTLGQMK [S19T], the protein stability index worked out at 1.96.
With WIVDKQHVYIGSAGLDWQKLGQMK [S19K], the protein stability index amounted to 2.22.
Consider WIVDKQHVYIGSAGLDWHSLGQMK [Q18H], for which the protein stability index was determined as 1.96.
On to WIVDKQHVYIGSAGLDWSSLGQMK [Q18S], for which the protein stability index worked out at 2.16.
The value for WIVDKQHVYIGSAGLDWDSLGQMK [Q18D] was 2.42; that for WIVDKQHVYIGSAGLDWRSLGQMK [Q18R] was 1.47.
For WIVDKQHVYIGSAGLDWTSLGQMK [Q18T], the protein stability index was 2.07.
Take WIVDKQHVYIGSAGLDWKSLGQMK [Q18K]: the protein stability index worked out at 1.61.
In the case of WIVDKQHVYIGSAGLDWESLGQMK [Q18E], the protein stability index was 1.6.
Next, WIVDKQHVYIGSAGLDWCSLGQMK [Q18C]: 3.36.
The value for WIVDKQHVYIGSAGLDWASLGQMK [Q18A] was 1.95; that for WIVDKQHVYIGSAGLDWGSLGQMK [Q18G] was 2.4; that for WIVDKQHVYIGSAGLDWYSLGQMK [Q18Y] was 2.65.
Consider WIVDKQHVYIGSAGLDWFSLGQMK [Q18F], for which the protein stability index was 4.52.
WIVDKQHVYIGSAGLDWLSLGQMK [Q18L]: the protein stability index came to 2.15.
For the variant WIVDKQHVYIGSAGLDWISLGQMK [Q18I], the protein stability index was determined as 2.62.
The value for WIVDKQHVYIGSAGLDWVSLGQMK [Q18V] was 2.73.
Turning to WIVDKQHVYIGSAGLDWNSLGQMK [Q18N], the protein stability index worked out at 2.1.
Next, WIVDKQHVYIGSAGLDWPSLGQMK [Q18P]: 1.85.
In the case of WIVDKQHVYIGSAGLDWMSLGQMK [Q18M], the protein stability index amounted to 3.07.
